In publication PMC4180972:

Target: Flag-TIN2 (human) (UniProt Q9BSI4)
Assay: co-IP

UniProt Q9BSI4, sequence (Q9BSI4 whole entry): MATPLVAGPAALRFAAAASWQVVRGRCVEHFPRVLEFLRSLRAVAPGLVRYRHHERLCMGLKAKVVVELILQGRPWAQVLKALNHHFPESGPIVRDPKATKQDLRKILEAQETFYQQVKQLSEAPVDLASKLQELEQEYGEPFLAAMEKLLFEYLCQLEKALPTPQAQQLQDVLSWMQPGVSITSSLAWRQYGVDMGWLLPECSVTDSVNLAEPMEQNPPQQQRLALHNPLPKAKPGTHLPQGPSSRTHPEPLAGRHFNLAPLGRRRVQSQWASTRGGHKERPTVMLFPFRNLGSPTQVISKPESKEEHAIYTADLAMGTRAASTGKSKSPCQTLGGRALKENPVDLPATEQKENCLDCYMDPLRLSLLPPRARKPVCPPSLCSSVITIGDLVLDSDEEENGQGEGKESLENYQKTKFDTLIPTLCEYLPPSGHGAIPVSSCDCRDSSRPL

fold reduction in TIN2 association against wild-type TPP1: 2 fold
Substance: Flag-tagged TPP1-P491T (from UniProt Q96AP0-3 1-458) (natural protein)
